Data from patent EP4371564A2.

Target: integrin molecules on human cells
Assay: cell-based or functional assay

B1: RGD-Hoc (SEQ ID NO: 19), P18056 1-376 (protein)
chain: CDCRGDCFCSAMTFTVDITPKTPTGVIDETKQFTATPSGQTGGGTITYAWSVDNVPQDGAEATFSYVLKGPAGQKTIKVVATNTLSEGGPETAEATTTITVKNKTQTTTLAVTPASPAAGVIGTPVQFTAALASQPDGASATYQWYVDDSQVGGETNSTFSYTPTTSGVKRIKCVAQVTATDYDALSVTSNEVSLTVNKKTMNPQVTLTPPSINVQQDASATFTANVTGAPEEAQITYSWKKDSSPVEGSTNVYTVDTSSVGSQTIEVTATVTAADYNPVTVTKTGNVTVTAKVAPEPEGELPYVHPLPHRSSAYIWCGWWVMDEIQKMTEEGKDWKTDDPDSKYYLHRYTLQKMMKDYPEVDVQESRNGYIIHKTALETGIIYTYPKLAAALEHHHHHH
- luciferase activity: 5 fold
